{
  "source": "patent US20260130973A1",
  "about": "“COMPOSITIONS AND METHODS FOR DEGRADATION OF LIPOFUSCIN CYCLORETINAL BY MSP1” (THE TEXAS A&M UNIVERSITY SYSTEM, priority 2022, published 2026)",
  "molecules": {"B1": {"name": "MsP1: peroxidase enzyme from the organism Marasmius scorodonius, SEQ ID NO: 1; recombinant, N-terminal hexa-Histidine tag (protein, listed as Mycetinis scorodonius)", "chain": "MKLFSASVFAAIIASHYASATAHIRAPNVKPRRTNSLLTAPPQQPPLPSAQQAASASSSAGLNLTDIQGDILIGMKKNKELFFFFSITDAATFKAKLGSDILELITSTNQLLAVATQPITAVNVAFSSTGLKALGITDDLKDPVFEAGMLSNAVSDLSDPGTGNWVPGFVGTSVHGVFLLASDTIDNVNTELANIQTILNGSITEIHRLQGEARPGDQQGHEHFGFMDGISNPAVDGFTPPAEIRPGQALIPPGIMLLGEANDTFQNDRPPWAKDGSFLVFRQMQQRAPEFNKFLQDHALNMPNMTSEQGADLLGARIVGRWKSDAPIDLTPLVDDPVLAADNQRNNNFDFSDATNQTRCPFSAHIRKANPRGDLGGINKFPNQHIIRAGIPYGPEVTDAEKASNSSSTDPSLERGLAFVAYQSNIQNGFVFLQKNWVDNTNFFRPGTGVDPLIGTNSRNSGTDAPNTPRVVSGLDPNNATSTIEIGIDFVVSRGGEYFFSPSLSAIRTVLSV", "modifications": "MsP1 amino acid sequence"}, "B2": {"name": "Marasmius scorodonius peroxidase MsP1 variant H365F (parent SEQ ID NO: 1) (Mycetinis scorodonius; H365F) (protein)", "chain": "ASSSAGLNLTDIQGDILIGMKKNKELFFFFSITDAATFKAKLGSDILELITSTNQLLAVATQPITAVNVAFSSTGLKALGITDDLKDPVFEAGMLSNAVSDLSDPGTGNWVPGFVGTSVHGVFLLASDTIDNVNTELANIQTILNGSITEIHRLQGEARPGDQQGHEHFGFMDGISNPAVDGFTPPAEIRPGQALIPPGIMLLGEANDTFQNDRPPWAKDGSFLVFRQMQQRAPEFNKFLQDHALNMPNMTSEQGADLLGARIVGRWKSDAPIDLTPLVDDPVLAADNQRNNNFDFSDATNQTRCPFSAFIRKANPRGDLGGINKFPNQHIIRAGIPYGPEVTDAEKASNSSSTDPSLERGLAFVAYQSNIQNGFVFLQKNWVDNTNFFRPGTGVDPLIGTNSRNSGTDAPNTPRVVSGLDPNNATSTIEIGIDFVVSRGGEYFFSPSLSAIRTVLSV", "notes": "site-directed mutant"}, "B3": {"name": "Marasmius scorodonius peroxidase MsP1, wild type (wtMsP1), SEQ ID NO: 1 (Mycetinis scorodonius) (protein)", "chain": "B2 chain with F310H", "notes": "wild type"}, "B4": {"name": "Marasmius scorodonius peroxidase MsP1 variant R388L (parent SEQ ID NO: 1) (Mycetinis scorodonius; R388L) (protein)", "chain": "B2 chain with F310H, R333L", "notes": "R388L variant gene synthesized"}, "B5": {"name": "Marasmius scorodonius peroxidase MsP1 variant D228A (parent SEQ ID NO: 1) (Mycetinis scorodonius; D228A) (protein)", "chain": "B2 chain with D173A, F310H", "notes": "site-directed mutant"}},
  "key": {"[1]": {"tested_on": "ARPE-19 cells", "test": "ARPE-19 cytotoxicity of liposomal complexes, MTT assay", "type": "cell-based", "conditions": "similar concentrations as cycloretinal, 96-h period", "procedure": "The liposomal complexes were prepared as follows. Cycloretinal (10 mg), β-Ionone (20 mg), and 2,4-Dimethylbenzaldehyde (20 mg) were dissolved separately in ethanol (1 mL). Glyoxal (5.80 mg), methylglyoxal (7.21 mg), and β-cyclocitral (15.2 mg) were dissolved separately in chloroform (1 mL). A liposome solution of cholesterol (112 mg), Tween 80 (504 mg), and L-α-phosphatidylcholine (730 mg) were dissolved in 16 mL of chloroform. Liposome solution (2 mL) was added to each of the compounds. The solvents were removed under vacuum and charged with nitrogen. Each of the flasks were then mixed with 5 mL of water and stirred at 60° C. for 1 h. Each solution was placed on ice and sonicated with a probe sonicator (15 seconds on/15 seconds off) for 5 min. The solutions were centrifuged at 11,000×g for 30 min and filtered through a 0.2 μm filter. Each sample (10 μL) was added to 1 mL ethanol and measured by absorption via UV-Vis spectroscopy. The extinction coefficients were 9970 M^−1cm^−1, 26343 M^−1cm^−1, and 13476 M^−1cm^−1 for cycloretinal, 2,4-dimethylbenzaldehyde, and β-ionone, respectively. […]\nCell viability was assessed with the MTT cell proliferation assay. […] The absorbance was subsequently evaluated at 570 nm utilizing a microplate reader (quant absorbance plate reader, BioTek Instruments Inc.) […]"}, "[2]": {"test": "MsP1 catalyzed degradation of cycloretinal; visual inspection and HPLC time course of degradation products", "type": "biochemical", "conditions": "at 12 hours", "procedure": "After 24 hours of incubation, broth cultures were transferred to sterile Eppendorf tubes and the organics extracted using an equal volume of dichloromethane (DCM) through vigorous vortexing. The organics were separated by centrifugation (13,000 rpm for 20 minutes), retrieved with a needle, and subsequently concentrated under nitrogen. The dried product was solubilized in 20 μL DCM and analyzed by high performance liquid chromatography (HPLC). HPLC analysis was performed on a Varian Prostar system equipped with a Phenomenex 5 μm 100 Å normal phase column (250×10 mm×5 micron), a UV detector set at 320 nm wavelength and mobile phase comprising 97% DCM and 3% methanol with flow rate of 2 mL/min. Products eluted were further analyzed by GC-MS.\nSubstrate emulsions (0.01%) were prepared, and Tween 40 was used to enhance solubilization of compounds, or otherwise dissolved in ethanol or DMSO. […]\nTo generate a standard curve for the degradation products, different concentrations of 2,4-dimethyl benzaldehyde (2, 4, 6, 8, 10 μg/20 μL) and β-ionone (1, 2, 3, 4 μg/20 μL) were analyzed by HPLC under the same conditions as as detailed in Example 3.\nTo identify the degradation products, cycloretinal was incubated for 1 hour with MsP1 in the presence of hydrogen peroxide. Following incubation, the reaction mixture was extracted and analyzed by GC-MS. […]"}, "[3]": {"test": "Activity of MsP1 at different pH (cycloretinal degradation)", "type": "biochemical", "procedure": "To determine the optimum pH for MsP1 activity, cycloretinal degradation reactions were carried out in PBS buffer as described herein but at different pH values by adjusting pH with either NaOH or HCl (i.e. a pH of 5.5, 6.4, 7.0, 7.5). Sample OD values were monitored using a UV-Vis spectrophotometer (Genesys™2, ThermoSpectronic) at 430 nm over a period of 300 seconds."}, "[4]": {"substrate": "CC(C=CC1=C(C)CCCC1(C)C)=CC=CC1=CC=C(C=O)C(C)(C=CC=C(C)C=CC2=C(C)CCCC2(C)C)C1", "test": "MsP1 H365F variant-catalyzed degradation of cycloretinal, steady-state enzyme kinetics", "type": "biochemical, Marasmius scorodonius", "conditions": "other: H365F, PBS pH 7.4, H2O2, 430 nm, mean and 95% confidence limits", "procedure": "(§1) The gene encoding Marasmius scorodonius extracellular peroxidase MsP1 (UniProtKB, B0BK71) and its R388L variant were chemically synthesized with codon optimization for E. coli, having an optimized sequence length 1539 bp cloned into pUC57 vector with a GC content of 54.67% (SEQ ID NO: 5).\n(§2) MsP1 mutants were generated using the Agilent mutagenesis kit (Quick change II site directed mutagenesis kit, catalog number: 200523) and primers of Table 1. Primer annealing was carried out at 55° C. for 60 seconds followed by a polymerization step carried out at 68° C. for 5 minutes. A total of 16 cycles were carried out. After PCR amplification DpnI digestion was performed by adding 1.5 μL DpnI to PCR amplification mixture incubating for 4 hours at 37° C. The resulting mixture was cleaned using resin provided in the kit and transformed into XL1 Blue electrocompetent cells. The resulting clones were screened and sequenced to confirm mutagenesis.\n(§3) Active site residues were selected based on multiple sequence alignment with homologous DyPs and protein modelling, His 365, Asp 228, and Arg 388 were identified as amino acids that are critical to MsP1 activity. […] This means that wtMsP1 has greater substrate affinity for cycloretinal, compared with D228A and R388L variants, and reaches half maximal velocity at lower substrate concentration. […] The greater affinity observed for the phenylalanine variant likely signifies that cycloretinal can dock with greater affinity in the active site since the iron porphyrin heme cofactor would no longer be covalently bound at residue 365. Therefore, the residues involved in MsP1 catalysis are D228, H365, and R388 (FIG. 10)."}, "[5]": {"substrate": "CC(C=CC1=C(C)CCCC1(C)C)=CC=CC1=CC=C(C=O)C(C)(C=CC=C(C)C=CC2=C(C)CCCC2(C)C)C1", "test": "MsP1-catalyzed degradation of cycloretinal, steady-state enzyme kinetics (decrease in absorbance at 430 nm)", "type": "biochemical, Marasmius scorodonius", "conditions": "other: wtMsP1, PBS pH 7.4, H2O2, 430 nm, mean and 95% confidence limits", "text": "as §1"}, "[6]": {"substrate": "CC(C=CC1=C(C)CCCC1(C)C)=CC=CC1=CC=C(C=O)C(C)(C=CC=C(C)C=CC2=C(C)CCCC2(C)C)C1", "test": "MsP1 R388L variant-catalyzed degradation of cycloretinal, steady-state enzyme kinetics", "type": "biochemical, Marasmius scorodonius", "conditions": "other: R388L, PBS pH 7.4, H2O2, 430 nm, mean and 95% confidence limits", "procedure": "as §1, §2, §3"}, "[7]": {"substrate": "CC(C=CC1=C(C)CCCC1(C)C)=CC=CC1=CC=C(C=O)C(C)(C=CC=C(C)C=CC2=C(C)CCCC2(C)C)C1", "test": "MsP1 D228A variant-catalyzed degradation of cycloretinal, steady-state enzyme kinetics", "type": "biochemical, Marasmius scorodonius", "conditions": "other: D228A, PBS pH 7.4, H2O2, 430 nm, mean and 95% confidence limits", "procedure": "as §1, §2, §3"}},
  "note": "Residue numbers refer to the chain shown, from its start. In names and notes the source's numbering stands. Entries after “also recorded” stand apart in the source; their conditions may differ.",
  "data": [
    {"molecule": "O=CC=O", "note": "[glyoxal]", "values": [
      {"measurement": "impact on cell viability / toxicity to ARPE-19 cells", "setting": "[1]", "result": "no impact on cell viability; also recorded: do not exhibit toxicity"}
    ]},
    {"molecule": "CC(=O)/C=C/C1=C(C)CCCC1(C)C", "note": "[β-ionone]", "values": [
      {"measurement": "impact on cell viability / toxicity to ARPE-19 cells", "setting": "[1]", "result": "no impact on cell viability; also recorded: do not exhibit toxicity"},
      {"measurement": "level of degradation product in MsP1/cycloretinal reaction (HPLC, standard curve)", "setting": "[2]", "result": "undetectable levels"}
    ]},
    {"molecule": "B1", "values": [
      {"measurement": "optimal pH for MsP1 catalytic activity towards cycloretinal", "setting": "[3]; pH 5.5, 6.4, 7.0, 7.5 tested", "result": 5.5},
      {"measurement": "activity at lysosomal pH", "setting": "[3]; pH of 5.5", "result": "highly active"}
    ]},
    {"molecule": "B2", "values": [
      {"measurement": "Km", "setting": "[4]", "result": "906 ± 26", "unit": "µM"},
      {"measurement": "kcat", "setting": "[4]", "result": "0.142 ± 0.0031", "unit": "s⁻¹"},
      {"measurement": "kcat/Km", "setting": "[4]", "result": "156 ± 8", "unit": "M⁻¹ s⁻¹"}
    ]},
    {"molecule": "B3", "values": [
      {"measurement": "Km", "setting": "[5]", "result": "845 ± 11", "unit": "µM"},
      {"measurement": "kcat", "setting": "[5]", "result": "0.229 ± 0.0024", "unit": "s⁻¹"},
      {"measurement": "kcat/Km", "setting": "[5]", "result": "271 ± 6.2", "unit": "M⁻¹ s⁻¹"}
    ]},
    {"molecule": "B4", "values": [
      {"measurement": "Km", "setting": "[6]", "result": "1140 ± 11", "unit": "µM"},
      {"measurement": "kcat", "setting": "[6]", "result": "0.0218 ± 0.00018", "unit": "s⁻¹"},
      {"measurement": "kcat/Km", "setting": "[6]", "result": "19.2 ± 0.3", "unit": "M⁻¹ s⁻¹"}
    ]},
    {"molecule": "B5", "values": [
      {"measurement": "Km", "setting": "[7]", "result": "4230 ± 82", "unit": "µM"},
      {"measurement": "kcat", "setting": "[7]", "result": "0.388 ± 0.0073", "unit": "s⁻¹"},
      {"measurement": "kcat/Km", "setting": "[7]", "result": "91.6 ± 3.5", "unit": "M⁻¹ s⁻¹"}
    ]}
  ]
}
